Measured values as given in US20220324970A1 (Janssen / Centocor, published 2022).
Like-named read-outs stand apart in the source and are kept apart here.

What was measured:
[1] = biological target: T1, human pIgR, full-length, on cells (human, UniProt P01833 19-764); test: cell-based or functional assay
[2] = biological target: T1, human pIgR, full-length, on cells; test: cell-based or functional assay; remark: listed apart in the source
[3] = biological target: T2, human pIgR extracellular domain (ECD) (human, UniProt P01833 19-638); test: BLI; summary table, repeats Table 1
T2 construct: also called hpIgR ECD
Target sequence in this assay (P01833 other isoform, or with tags, fused parts or gaps): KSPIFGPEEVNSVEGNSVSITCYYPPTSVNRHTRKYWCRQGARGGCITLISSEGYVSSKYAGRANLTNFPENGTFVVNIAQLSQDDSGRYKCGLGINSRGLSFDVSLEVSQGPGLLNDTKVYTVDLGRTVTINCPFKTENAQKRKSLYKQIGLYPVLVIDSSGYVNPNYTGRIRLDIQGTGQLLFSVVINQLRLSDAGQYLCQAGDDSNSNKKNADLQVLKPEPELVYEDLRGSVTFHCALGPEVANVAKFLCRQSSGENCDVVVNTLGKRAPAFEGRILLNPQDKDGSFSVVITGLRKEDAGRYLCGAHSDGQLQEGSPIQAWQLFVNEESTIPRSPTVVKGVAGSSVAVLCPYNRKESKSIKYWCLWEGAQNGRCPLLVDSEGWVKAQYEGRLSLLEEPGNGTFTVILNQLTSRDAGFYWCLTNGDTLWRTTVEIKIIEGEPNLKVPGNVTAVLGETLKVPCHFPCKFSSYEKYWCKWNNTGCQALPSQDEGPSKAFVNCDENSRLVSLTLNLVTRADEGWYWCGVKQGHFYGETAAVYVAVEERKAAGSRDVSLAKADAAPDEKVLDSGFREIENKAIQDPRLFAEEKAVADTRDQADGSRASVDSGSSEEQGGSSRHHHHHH

[4] = biological target: T2, human pIgR extracellular domain (ECD); test: BLI (Octet), VHH-mono-Fc and hpIgR ectodomain
Target sequence in this assay (P01833 other isoform, or with tags, fused parts or gaps): as above

[5] = biological target: T2, human pIgR extracellular domain (ECD); test: ECL (MSD), hpIgR-ECD coated, anti-Fc detection
[6] = biological target: T3, hpIgR domain-1 with teleost fish CDR2 (hD1 tCDR2) (human, UniProt P01833 19-127, limits assumed); test: BLI, HIS-tagged construct on anti-HIS biosensors
T3 construct: CDR-swapped hpIgR domain-1 mutant, HIS-tagged, made in HEK293 cells; not shown: HIS tag
T3 chain: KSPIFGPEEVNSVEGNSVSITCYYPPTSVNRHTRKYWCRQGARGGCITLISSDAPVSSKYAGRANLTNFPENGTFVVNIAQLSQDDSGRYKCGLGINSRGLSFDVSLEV

[7] = biological target: T4, human pIgR extracellular domain 1 (D1) (human, UniProt P01833 19-127); test: ratio of the second to the first EC50 column
T4 construct: HIS-tagged construct made in HEK293 cells; also called hpIgR domain-1

[8] = biological target: T5, human pIgR extracellular domain 1-domain 2 (D1-D2) (human, UniProt P01833 19-240); test: ratio of the second to the first EC50 column
T5 construct: HIS-tagged construct made in HEK293 cells

[9] = biological target: T4, human pIgR extracellular domain 1 (D1); test: BLI, HIS-tagged pIgR construct on anti-HIS biosensors
Procedure: (§1) Bio-layer Interferometry was performed as follows. […] Data were collected with Octet Data Acquisition version 7.1.0.87 (ForteBio) and analyzed using Octet Data Analysis version 7.1 (ForteBio). To measure binding kinetics between VHH-mono-Fc molecules and HIS-tagged pIgR proteins, VHH-mono-Fc was immobilized on amine-reactive generation-2 (ARG2) biosensors according to manufacturer's instructions and increasing concentrations of pIgR proteins were exposed to sensor-immobilized VHH. In some cases, HIS-tagged pIgR proteins were immobilized on anti-HIS biosensors and exposed to increasing concentrations of VHH-mono-Fc molecules. Association and dissociation rates were measured by the shift in wavelength (nm). […] All reactions were performed at 25° C. in PBS.
(§2) (Full-length hpIgR ECD was purchased from R&D Systems.) The five constructs (D1-D2, D1, D1_tCDR1, D1_tCDR2, D1_tCDR3) were expressed and purified from HEK293 cells using immobilized metal ion affinity chromatography. Three hpIgR domain-1 CDR mutants (D1_tCDR1, D1_tCDR2, D1_tCDR3) contain respective teleost fish CDR on a hpIgR domain-1 framework. His-tagged pIgR constructs were immobilized on anti-HIS biosensors and binding of VHH-mono-Fc molecules to pIgR constructs were measured by bio-layer interferometry.

[10] = biological target: T5, human pIgR extracellular domain …; test: as above
Procedure: as §1, §2

[11] = biological target: T6, hpIgR domain-1 with teleost fish CDR1 (hD1 tCDR1) (human, UniProt P01833 19-127, limits assumed); test: as above
T6 construct: CDR-swapped hpIgR domain-1 mutant, HIS-tagged, made in HEK293 cells; not shown: HIS tag

[12] = biological target: T7, hpIgR domain-1 with teleost fish CDR3 (hD1 tCDR3) (human, UniProt P01833 19-127, limits assumed); test: as above
T7 construct: CDR-swapped hpIgR domain-1 mutant, HIS-tagged, made in HEK293 cells; not shown: HIS tag

[13] = biological target: T1, human pIgR, full-length, on cells; test: flow cytometry on MDCK-hpIgR cells; summary table, repeats Table 1
[14] = biological target: T1, human pIgR, full-length, on cells; test: as above; remark: listed apart in the source
Procedure: Flow Cytometry was performed as follows. To test whether VHH-mono-Fc molecules recognize cell-surface hpIgR, Madin-Darby canine kidney (MDCK) cells engineered to express full-length hpIgR were used. Cells were cultured in Dulbecco's modified Eagle's medium containing 10% fetal calf serum at 37° C. with 5% CO₂. Cells were split into equal fractions (≈70,000 cells) and incubated with increasing concentrations of VHH-mono-Fc molecules for 30 min at 4 C. […] Cells were washed twice with cold staining buffer, resuspended in running buffer and analyzed with an iQue Screener (IntelliCyt Corporation). Binding was assessed by RL1 (A647) Geomeans from the live cell population and EC50 was calculated by fitting log VHH concentration versus MFI in Prism (Graphpad).

[15] = biological target: T4, human pIgR extracellular domain 1 (D1); test: ECL (MSD), Log ECLU against Log [VHH] nM, anti-Fc detection (first EC50 column)
[16] = biological target: T5, human pIgR extracellular domain …; test: as above
hpIgR_D3 = biological target: T8, hpIgR_D3; test: ECL (MSD) heat map, HIS-tagged construct captured via anti-HIS, anti-human-Fc detection;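 further: VHH-mono-Fc molecules tested at 100 µg/ml for 2 h on captured His-tagged pIgR constructs (10 µg/ml), read-out as electrochemiluminescence units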
T8 construct: HIS-tagged construct from HEK293 cells; also called human pIgR extracellular domain 3 (D3); hD3
T8 HIS-tagged domain construct: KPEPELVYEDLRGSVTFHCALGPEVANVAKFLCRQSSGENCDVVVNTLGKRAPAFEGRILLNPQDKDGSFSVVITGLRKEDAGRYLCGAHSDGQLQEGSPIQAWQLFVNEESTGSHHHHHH

[17] = biological target: T9, human pIgR extracellular domain 2 (D2) (human, UniProt P01833 128-242); test: as above
T9 construct: HIS-tagged construct made in HEK293 cells; also called hpIgR domain 2

[18] = biological target: T10, human pIgR extracellular domain 5 (D5) (human, UniProt P01833 460-565); test: as above
T10 construct: HIS-tagged construct made in HEK293 cells; also called hpIgR domain 5

hpIgR_D2-D3 = biological target: T11, hpIgR_D2-D3; test: as above
T11 construct: HIS-tagged construct from HEK293 cells; also called human pIgR extracellular domain 2-domain 3 (D2-D3); hD2-D3
Procedure: The Electrochemiluminescence assay was performed as follows. A meso-scale discovery (MSD) platform was used for conducting epitope mapping and epitope burial studies. To test the binding of VHH-mono-Fc molecules to purified pIgR protein constructs, Streptavidin MSD plates were coated with a biotinylated anti-HIS antibody (2 μg/ml in PBS) for 1 hour at RT with 1000 rpm, washed 3× with PBT (PBS+0.1% Tween-20), incubated with blocking buffer for 1 hour at RT, incubated with His-tagged pIgR proteins (10 μg/ml in PBS) for 2 hours at RT with 1000 rpm, washed 3× with PBT, incubated with VHH-mono-Fc molecules (100 μg/ml in PBS) for 2 hours at RT with 1000 rpm, washed 3× with PBT, incubated with ruthenylated-anti-human-Fc antibody (2 μg/ml in PBS) for 1 hour at RT with 1000 rpm, washed 3× with PBT and read plates in 40 ul reading buffer using the MSD imager. ECLU values were plotted as a heatmap.
T11 HIS-tagged domain construct: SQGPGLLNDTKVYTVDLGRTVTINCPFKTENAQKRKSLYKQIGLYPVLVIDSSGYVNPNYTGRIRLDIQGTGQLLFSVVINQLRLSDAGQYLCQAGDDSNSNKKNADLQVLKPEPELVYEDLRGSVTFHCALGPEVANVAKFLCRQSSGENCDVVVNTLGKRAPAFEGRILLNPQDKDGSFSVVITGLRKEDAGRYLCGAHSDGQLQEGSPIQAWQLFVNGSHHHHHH

[19] = biological target: T5, human pIgR extracellular domain …; test: ECL (MSD); headed 'Anti-Fc' on the sheet, but its ECD values are the anti-VHH values of Table 2, so anti-VHH detection

T1 sequence (P01833 19-764): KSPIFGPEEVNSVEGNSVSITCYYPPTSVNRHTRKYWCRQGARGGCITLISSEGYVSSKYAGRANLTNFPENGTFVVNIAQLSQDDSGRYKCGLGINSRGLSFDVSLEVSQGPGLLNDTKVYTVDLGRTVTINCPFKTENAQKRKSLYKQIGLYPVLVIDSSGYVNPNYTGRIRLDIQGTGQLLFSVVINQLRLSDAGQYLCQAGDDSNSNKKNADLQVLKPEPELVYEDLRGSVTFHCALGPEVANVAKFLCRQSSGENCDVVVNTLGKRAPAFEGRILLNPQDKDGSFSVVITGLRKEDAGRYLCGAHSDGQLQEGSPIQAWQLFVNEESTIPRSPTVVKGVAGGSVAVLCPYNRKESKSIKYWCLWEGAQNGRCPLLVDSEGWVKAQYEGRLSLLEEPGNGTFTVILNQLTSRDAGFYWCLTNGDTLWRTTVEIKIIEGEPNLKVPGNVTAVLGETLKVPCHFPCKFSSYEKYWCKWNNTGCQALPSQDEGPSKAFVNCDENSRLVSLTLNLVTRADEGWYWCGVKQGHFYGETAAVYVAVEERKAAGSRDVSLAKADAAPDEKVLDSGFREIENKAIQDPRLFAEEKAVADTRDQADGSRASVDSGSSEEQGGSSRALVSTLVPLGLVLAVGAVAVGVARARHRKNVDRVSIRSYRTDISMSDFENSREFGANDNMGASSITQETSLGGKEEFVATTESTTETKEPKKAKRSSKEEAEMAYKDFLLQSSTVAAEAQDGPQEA
T10 sequence (P01833 other isoform, or with tags, fused parts or gaps limits assumed): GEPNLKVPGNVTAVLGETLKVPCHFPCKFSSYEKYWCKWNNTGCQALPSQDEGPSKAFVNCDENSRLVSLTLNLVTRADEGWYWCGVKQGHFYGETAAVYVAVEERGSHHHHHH

Binder	Transcytosis (Fold Incr.) [1]	For. Trans. (Fold Incr.) [2]	Rev. Trans (Fold Incr.) [2]	Kd [3]	Kd [4]	EC50 [5]	binding result [6]	Fold change [7]	Fold change [8]	Kd [9]	Kd [10]	Kd [11]	Kd [12]	EC50 [13]	EC50 [14]	EC50 [15]	EC50 [16]	binding result (hpIgR_D3)	binding result [17]	binding result [18]	further results
VHH2-linker-mono-Fc protein (Fc fusion, also called VHH2-mono-Fc; mpIgR_338) EVQVVESGGGLVQAGGSLKLACAAPGLTFSSYRMGWFRQAPGQEREFVAAIDWNGRGTYYRYYADSVKGRSTISRDNAKNTVYLQMNSLKPEDTAVYYCAATTVLTDPRVLNEYATWGQGTQVTVSSEPKTPKPQPQPQLQPQPNPTTESKSPKSPAPELLGGPSVFLFPPKPKDTLMISRTPEVTCVVVDVSHEDPEVKFNWYVDGVEVHNAKTKPREEQYNSTYRVVSVLTVLHQDWLNGKEYKCKVSNKALPAPIEKTISKAKGQPREPQVYTKPPSREEMTKNQVSLSCLVKGFYPSDIAVEWESNGQPENNYKTTVPVLDSDGSFRLASYLTVDKSRWQQGNVFSCSVMHEALHNHYTQKSLSLSPGK	34.2 fold	21 fold	5.7 fold	21 nM	21 nM	4.2 nM	no binding	1.2	1.2	15.5 nM	23 nM	21.3 nM	14.9 nM	6.3 nM	6.3 nM	6.8 nM	1.5 nM	no binding (tested: 100 ug/ml (single concentration))	no binding (tested: 100 ug/ml (single concentration))	no binding (tested: 100 ug/ml (single concentration))	binding result (hpIgR_D2-D3): no binding (tested: 100 ug/ml (single concentration)); EC50 [19]: 1.8 nM
VHH3-linker-mono-Fc protein (Fc fusion, made in CHO cells; also called VHH3-mono-Fc; hpIgR_021) QLQLVESGGGLVQPGGSLRLSCAASGSIFSINVMGWYRQAPGKQRELVARINGGGITHYAESVKGRFTISRDNAKNTVYLQMNSLKPEDTAAYYCKADVFGSSGYVETYWGQGTQVTVSSEPKTPKPQPQPQLQPQPNPTTESKSPKSPAPELLGGPSVFLFPPKPKDTLMISRTPEVTCVVVDVSHEDPEVKFNWYVDGVEVHNAKTKPREEQYNSTYRVVSVLTVLHQDWLNGKEYKCKVSNKALPAPIEKTISKAKGQPREPQVYTKPPSREEMTKNQVSLSCLVKGFYPSDIAVEWESNGQPENNYKTTVPVLDSDGSFRLASYLTVDKSRWQQGNVFSCSVMHEALHNHYTQKSLSLSPGK	2.6 fold	1 fold	1 fold	5 nM	5 nM	0.5 nM	no binding	5.7	11.9	7.7 nM	13.3 nM	77 nM	7.5 nM	6.4 nM	6.4 nM	3.1 nM	1.2 nM	no binding (tested: 100 ug/ml (single concentration))	no binding (tested: 100 ug/ml (single concentration))	no binding (tested: 100 ug/ml (single concentration))	binding result (hpIgR_D2-D3): no binding (tested: 100 ug/ml (single concentration)); EC50 [19]: 13.7 nM
